Here are results for 4 compounds from PMC7018516, “Structure of the AAA protein Msp1 reveals mechanism of mislocalized membrane protein extraction” (eLife, 2020).

Assay [1] concerns the target T1, Δ30-Msp1 (Thermochaetoides thermophila, UniProt G0S654).
T1 construct: gene CTHT_0034230; cytosolic domain lacking the 30-residue N-terminal membrane anchor; GST tag removed by thrombin; expressed in E. coli BL21(DE3); homohexamer with trapped endogenous E. coli peptide in the pore
Description: cryo-EM structure of complex. Particulars: 5 mM ADP•BeFx, 5 mM MgCl2, pH 7.5; ADP without BeFx in subunit M5; nucleotide-binding pocket; substrate peptide in pore.

In assay [2] the target is T2, Δ30-Msp1 (Thermochaetoides thermophila, UniProt G0S654, E214Q).
T2 construct: gene CTHT_0034230; cytosolic domain lacking the 30-residue N-terminal membrane anchor; GST tag removed by thrombin; expressed in E. coli BL21(DE3); homohexamer with trapped endogenous E. coli peptide in the pore
T2 sequence (G0S654 entry or part of it E214Q): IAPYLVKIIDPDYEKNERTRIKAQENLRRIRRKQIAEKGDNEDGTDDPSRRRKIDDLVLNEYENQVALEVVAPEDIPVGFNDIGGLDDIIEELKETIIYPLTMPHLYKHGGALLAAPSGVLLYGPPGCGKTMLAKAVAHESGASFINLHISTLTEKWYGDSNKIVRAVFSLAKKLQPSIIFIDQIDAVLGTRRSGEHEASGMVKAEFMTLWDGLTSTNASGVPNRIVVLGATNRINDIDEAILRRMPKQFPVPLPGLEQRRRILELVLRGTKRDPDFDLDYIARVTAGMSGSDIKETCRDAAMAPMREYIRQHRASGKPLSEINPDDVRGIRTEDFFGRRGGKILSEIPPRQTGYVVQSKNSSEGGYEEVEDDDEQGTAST
Description: cryo-EM structure of complex. The following applies: 2 mM ATP, 2 mM MgCl2, pH 7.5; subunits M1-M5; nucleotide-binding pocket; Walker B mutant, hydrolysis inactive.

Assay [3] deals with Δ30-Msp1 (cytosolic domain of Chaetomium thermophilum Msp1 lacking its 30 amino acid N-terminal membrane anchor) (Chaetomium thermophilum). Description: cryo-EM structure; Δ30-Msp1 at 50–100 μM with 5 mM MgCl2 and 5 mM ADP•BeFx, 25 mM HEPES pH 7.5, 300 mM NaCl, 1 mM DTT, 2.5% glycerol; subunit with subunit; open and closed conformations.
Assay [4] shares this target. The assay can be described thus: SEC; gel filtration of the purified protein in Msp1 lysis buffer (25 mM HEPES pH 7.5, 300 mM NaCl, 1 mM DTT, 2 mM MgCl2); self-association. (Size exclusion chromatography separates by hydrodynamic size, large species first.)
Assay [5] addresses Δ30-Msp1^E214Q (Walker B mutant of the cytosolic domain of Chaetomium thermophilum Msp1) (Chaetomium thermophilum). Described as above.
The target is the same in assay [6]. The assay can be described thus: cryo-EM structure; Δ30-Msp1^E214Q at 50–100 μM with 2 mM ATP and 2 mM MgCl2, 25 mM HEPES pH 7.5, 300 mM NaCl, 1 mM DTT, 2.5% glycerol; subunit with subunit; hexamer and larger oligomer classes.
Assay [7] has the same target. The assay is described as above. This is another data set of the same source.

Some results are limits rather than exact numbers.

T1 sequence (G0S654 entry or part of it, stated change not applied): as the sequence (G0S654 entry or part of it E214Q) above, with Q184E counted along it

As for `Nc1ncnc2c1ncn2[C@@H]1O[C@H](COP(=O)(O)OP(=O)(O)O)[C@@H](O)[C@H]1O` [ADP], the “cryo-EM structure of complex” value at Δ30-Msp1 [1] is on record as “M1 -M4 were bound to ADP•BeFx (mimicking the ATP state), M5 was bound to ADP”.

As for `Nc1ncnc2c1ncn2[C@@H]1O[C@H](COP(=O)(O)OP(=O)(O)OP(=O)(O)O)[C@@H](O)[C@H]1O` [ATP], the “cryo-EM structure of complex” value on Δ30-Msp1 [2] is recorded as “In Δ30-Msp1^E214Q, M1-M5 display clear density for ATP”.

As to “Δ30-Msp1 (cytosolic domain of Chaetomium thermophilum Msp1 lacking its 30 amino acid N-terminal membrane anchor) (enzyme)”, the stoichiometry N in assay [3] and in assay [4] was 6 each time.

For the compound “Δ30-Msp1^E214Q (Walker B mutant of the cytosolic domain of Chaetomium thermophilum Msp1) (enzyme)”, the stoichiometry N (usually a count of units in the complex or per binding partner) in assay [5] is above 6; in assay [6], 7; in assay [7], 6.
